Data taken from the MegaScale stability set (Tsuboyama et al. 2023).

B1: r11_951_TrROS_Hall (parent)
chain: KKKYVIKVYFEDTGKEVEIEAESKEEALEAAKRLAEELGLKIKKVEIYP

Variants of: B1
Experiment: folding stability dG (cDNA display proteolysis); higher = more stable
Conditions: PBS, room temperature

| Variant | folding stability dG [kcal/mol] |
| --- | --- |
| KKKYVIKVYFEDTGKEVEIEAESKEEALEAAKRLAEDLGLKIKKVEIYP [E37D] | 4.29 |
| KKKYVIKVYFEDTGKEVEIEAESKEEALEAAKRLAENLGLKIKKVEIYP [E37N] | 4.42 |
| KKKYVIKVYFEDTGKEVLIEAESKEEALEAAKRLAEELGLKIKKVEIYP [E18L] | 4.46 |
| KKKYVITVYFEDTGKEVEIEAESKEEALEAAKRLAEELGLKIKKVEIYP [K7T] | 4.07 |
| KKKYVIKVYFEDTGKEVEIEAESKEEALEAAKRTAEELGLKIKKVEIYP [L34T] | 4.25 |
| KKKYVIKVYFEDTGKEVEIEAESKEEALEAAKRYAEELGLKIKKVEIYP [L34Y] | 4.45 |
| KTKYVIKVYFEDTGKEVEIEAESKEEALEAAKRLAEELGLKIKKVEIYP [K2T] | 4.46 |
| KKKYVIKVYFEDTGKEVEIEAESKEEALEAATRLAEELGLKIKKVEIYP [K32T] | 4.41 |
| KKKHVIKVYFEDTGKEVEIEAESKEEALEAAKRLAEELGLKIKKVEIYP [Y4H] | 3.58 |
| KKKQVIKVYFEDTGKEVEIEAESKEEALEAAKRLAEELGLKIKKVEIYP [Y4Q] | 3.55 |
| KKKYVIKVYFEDTGKEVEIEAESKEEALEAAKRLAEELGLPIKKVEIYP [K41P] | 4.25 |
| KKKYVIKVYFEDTGKEVEIEAESKEEALEAAKRLAEEWGLKIKKVEIYP [L38W] | 4.52 |
| KKKYVIKVYFEDTGKEVEIEAESKEEALEAAKRLAEEAGLKIKKVEIYP [L38A] | 4.52 |
| KKKYVIKVYFEDTGKEVEIEAESKEEALEAAKRLAEELGVKIKKVEIYP [L40V] | 4.1 |
| KKKYVIKVYFEDTGKEVEIEAESKEEALEAAKRLAEELGDKIKKVEIYP [L40D] | 3.85 |
| KKKYVIKVYFEDTGKEVEIEAESKEEALEAAKRLAEELGHKIKKVEIYP [L40H] | 4.12 |
| KKKYVIKVYFEDTGKEVEIEAESKEEALEAAKRLAEELGLKIKKVEWYP [I47W] | 4.49 |
| KKKYVIKVYFEDTGKEVEIEAESDEEALEAAKRLAEELGLKIKKVEIYP [K24D] | 4.37 |
| KKKYVIKVYFEDTGKEVEIEAESVEEALEAAKRLAEELGLKIKKVEIYP [K24V] | 4.6 |
| KKKYVIKVYFEDTGKEVEIEAESFEEALEAAKRLAEELGLKIKKVEIYP [K24F] | 4.32 |
| KKKYVIKVYFEDTGKEVEIEAESKEEALEAAKRLAEELGLKIKKVLIYP [E46L] | 4.38 |
| KKKYVIKVYFEDTGKEVEIEAESKEEALEAAKRLAEELGLKIKKVRIYP [E46R] | 4.16 |
| KKKYVIKVYFEDTGKEVEIEAESKEEALEAAKRLAEELGLKIKKTEIYP [V45T] | 4.16 |
| KKKYVIKVYFEDTGKEVEIEAEFKEEALEAAKRLAEELGLKIKKVEIYP [S23F] | 4.26 |
| KKKYVIKVYFEDTGKEVEIEAEDKEEALEAAKRLAEELGLKIKKVEIYP [S23D] | 4.31 |
| KKKYVIKVYFEDTGKEVEIEAESKEEALEAAKRLAEELGLKIKKVEICP [Y48C] | 4.46 |
| KKKYVIKVYFEDTGKEVEIEAESKEEALEAAKRLNEELGLKIKKVEIYP [A35N] | 3.14 |

| Variant | folding stability dG [kcal/mol] |
| --- | --- |
| KKKYVIKVYLEDTGKEVEIEAESKEEALEAAKRLAEELGLKIKKVEIYP [F10L] | 3.94 |
| KKKYVIKVYVEDTGKEVEIEAESKEEALEAAKRLAEELGLKIKKVEIYP [F10V] | 2.98 |
| KKKYVIKVYFEDTGKEVEIEAESKPEALEAAKRLAEELGLKIKKVEIYP [E25P] | 4.16 |
| KKKYVIKVYFEDTGKEVEIEAESKREALEAAKRLAEELGLKIKKVEIYP [E25R] | 4.22 |
| KKKYVIKVYFYDTGKEVEIEAESKEEALEAAKRLAEELGLKIKKVEIYP [E11Y] | 4.83 |
| KKKYVIKVYFRDTGKEVEIEAESKEEALEAAKRLAEELGLKIKKVEIYP [E11R] | 4.82 |
| KKKYVIKVYFEDTGKCVEIEAESKEEALEAAKRLAEELGLKIKKVEIYP [E16C] | 4.05 |
| KKKYVIKVYFEDTGKPVEIEAESKEEALEAAKRLAEELGLKIKKVEIYP [E16P] | 4.21 |
| KKKYVIKVYFEDTGKEVEIEAESKEEAGEAAKRLAEELGLKIKKVEIYP [L28G] | 4.17 |
| KKKYVIKVYFEDTGKEVEPEAESKEEALEAAKRLAEELGLKIKKVEIYP [I19P] | 0.94 |
| KKKYVIKVYFEDTGKEVEIEAESKEEALEGAKRLAEELGLKIKKVEIYP [A30G] | 4.4 |
| KKKYVIKLYFEDTGKEVEIEAESKEEALEAAKRLAEELGLKIKKVEIYP [V8L] | 4.25 |
| KKKYVIKEYFEDTGKEVEIEAESKEEALEAAKRLAEELGLKIKKVEIYP [V8E] | 0.978 |
| KKKYVIKMYFEDTGKEVEIEAESKEEALEAAKRLAEELGLKIKKVEIYP [V8M] | 4.28 |
| KKKYVIKVYFEDTGKEVEIEAESKEEALEAIKRLAEELGLKIKKVEIYP [A31I] | 4.2 |
| KKKYVIKVYFEDTGKEVEIEAESKEEALQAAKRLAEELGLKIKKVEIYP [E29Q] | 4.22 |
| KKKYVIKVYFEDTGKEVEIEAESKEEALSAAKRLAEELGLKIKKVEIYP [E29S] | 4.56 |
| KKKYVIKVYFEDTGKEVEIERESKEEALEAAKRLAEELGLKIKKVEIYP [A21R] | 4.32 |
| KKKYVIKVYFEDTGKEVEIECESKEEALEAAKRLAEELGLKIKKVEIYP [A21C] | 4.07 |
| KKKYVIKVYFEDTGKEVEIEAESKEEALEAAKRLAEELGLKWKKVEIYP [I42W] | 4.05 |
| KKKYVGKVYFEDTGKEVEIEAESKEEALEAAKRLAEELGLKIKKVEIYP [I6G] | 3.82 |
| KKKYVIKVYFEDTGKEVEIEAESKEEALEAAKELAEELGLKIKKVEIYP [R33E] | 4.03 |
| KKKYVIKVYFEDTGVEVEIEAESKEEALEAAKRLAEELGLKIKKVEIYP [K15V] | 4.37 |
| KKKYVIKVYFEDTGKEVEIEAESKERALEAAKRLAEELGLKIKKVEIYP [E26R] | 4.39 |
| KKKYVIKVYFEDTGKEVEIEAGSKEEALEAAKRLAEELGLKIKKVEIYP [E22G] | 4.32 |
| KKKYVIKVYFEDTGKEVEIEAESKEEALEAAKRLAQELGLKIKKVEIYP [E36Q] | 4.66 |
